How the values were obtained:
[1] = biological target: T1, recombinant human LIF (Leukemia Inhibitory Factor) (human, UniProt P15018 23-202); assay: ELISA, coated recombinant human LIF, anti-human Fc HRP detection
T1 construct: also called biotinylated recombinant human LIF
Description: Recombinant human LIF was coated on maxisorp plates overnight at 4° C. The next day, plates were blocked with casein blocking buffer for 1 hour at 37° C. Titrations of each antibody were added to the plates and allowed to bind for 1 hour at room temperature. Plates were washed 4× with PBST followed by incubation with an HRP conjugated anti-human Fc secondary for 30 minutes at RT. Plates were then washed again with 4×PBST and then developed using TMB substrate and 1M HCl.

[2] = biological target: T1, recombinant human LIF (Leukemia …); assay: cell-based or functional assay
[3] = biological target: T1, recombinant human LIF (Leukemia …); assay: BLI (Octet), antibody on anti-human Fc biosensors, human LIF in solution
Description: Affinities were determined using biolayer interferometry on the Octet platform. Anti-human Fc biosensors were used to load chimeric B7 and humanized variants, and titrations of recombinant human LIF (200 nM→0 nM) were associated for 180 seconds followed by a 300 second dissociation step. Affinity measurements are recorded in Table 3.

[4] = biological target: T1, recombinant human LIF (Leukemia …); assay: LIF:LIFR blocking ELISA, coated human LIFR, biotinylated human LIF premixed with antibody
Description: Recombinant human LIFR was coated on maxisorp plates overnight at 4 C. The next day, plates were blocked with casein blocking buffer for 1 hr at 37 C. During this period, titrations of each antibody were mixed with biotinylated recombinant human LIF. Following blocking, the antibody/antigen premix was added to the plates and allowed to incubate for 1 hr at RT. Plates were then washed with 4×PBST and an HRP conjugated avidin secondary reagent was added for 30 min at room temperature. Plates were washed again with 4×PBST and then developed using TMB substrate and 1M HCl.

T1 sequence (P15018 23-202 limits assumed, form in doubt): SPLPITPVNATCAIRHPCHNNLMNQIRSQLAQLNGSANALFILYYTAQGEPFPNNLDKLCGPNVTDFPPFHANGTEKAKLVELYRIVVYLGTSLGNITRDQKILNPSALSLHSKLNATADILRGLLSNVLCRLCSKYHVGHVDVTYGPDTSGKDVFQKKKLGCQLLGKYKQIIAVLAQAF

Binder	EC50 [1]	pSTAT3 inhibition assay IC50 (nM) [2]	Kd [3]	IC50 [4]
NB0919 (antibody, V domains shown, Humanized variant of B7 by CDR grafting; also called Clone 919) VH: QVQLQESGPGLVKPSDTLSLTCTVSGFSFSTDYWWSWIRQPPGKGLEWIGYIYVGTSGDTYYNPSLKSRVTISVDTSKNQFSLKLSSVTAADTAVYYCAGADNPYDYFNLWGQGTLVTVSS VL: DIQMTQSPSSLSASVGDRVTITCRASETISGYLNWYQQKPGKAPKLLIYRASSLQSGVPSRFSGSGSGTDFTLTISSLQPEDFATYYCQQGYSYSDTDNVFGGGTKVEIK	0.17 nM	52.7 nM	19.6 nM	
NB0937 (antibody, V domains shown, Humanized variant of B7 by CDR grafting; also called Clone 937) VH: EVQLVESGGGLVQPGGSLRLSCAASGFSFSTDYWMSWVRQAPGKGLEWVSSIYVGTSGDTYYADSVKGRFTISRDNSKNTLYLQMDSLRAEDTAIYYCAGADNPYDYFNLWGQGTLVTVS VL: DIQMTQSPSSVSASVGDRVTITCRASETISGYLAWYQQKPGKAPKLLIYRASSLESGVPSRFSGSGSGTEFTLTISSLQPDDFATYYCQQGYSYSDTDNVFGGGTKVEIK	0.08 nM	7.22 nM	5.02 nM	16.6 nM

Continued, values first:

EC50 [1]	pSTAT3 inhibition assay IC50 (nM) [2]	Kd [3]	IC50 [4]	Binder
0.12 nM	38.7 nM	9.97 nM		NB0920 (antibody, V domains shown, Humanized variant of B7 by CDR grafting; also called Clone 920) VH: QVQLQESGPGLVKPSDTLSLTCTVSGFSFSTDYWWSWIRQPPGKGLEWIGYIYVGTSGDTYYNPSLKSRVTISVDTSKNQFSLKLSSVTAADTAVYYCAGADNPYDYFNLWGQGTLVTVSS VL: DIQMTQSPSSLSASVGDRVTITCRASETISGYLAWYQQKPGKVPKLLIYRASTLQSGVPSRFSGSGSGTDFTLTISSLQPEDVATYYCQQGYSYSDTDNVFGGGTKVEIK
0.13 nM	11 nM	10.6 nM	24.4 nM	NB0938 (antibody, V domains shown, Humanized variant of B7 by CDR grafting; also called Clone 938) VH: EVQLVESGGGLVQPGGSLRLSCAASGFSFSTDYWMSWVRQAPGKGLEWVSSIYVGTSGDTYYADSVKGRFTISRDNSKNTLYLQMDSLRAEDTAIYYCAGADNPYDYFNLWGQGTLVTVS VL: DIQMTQSPSSLSASVGDRVTITCRASETISGYLNWYQQKPGKAPKLLIYRASSLQSGVPSRFSGSGSGTDFTLTISSLQPEDFATYYCQQGYSYSDTDNVFGGGTKVEIK

— patent US20230050773A1 (AstraZeneca / MedImmune, published 2023)
